Measured values taken from PMC6245935, “Fructose-1,6-bisphosphate aldolase encoded by a core gene of Mycoplasma hyopneumoniae contributes to host cell adhesion” (Veterinary Research, 2018).

Target: fibronectin (UniProt P02751 32-2477)
Assay: SPR; BIAcore X100 Plus; fibronectin amine-coupled to CM5 chip (2868 RU); rFBA analyte 0-100 ug/mL in HBS-EP (10 mM HEPES, 150 mM NaCl, 3 mM EDTA, 0.05% P20), 30 uL/min, 180 s association, 1000 s dissociation, 20 °C
Settings: both partners purified

fibronectin, sequence (P02751 32-2477): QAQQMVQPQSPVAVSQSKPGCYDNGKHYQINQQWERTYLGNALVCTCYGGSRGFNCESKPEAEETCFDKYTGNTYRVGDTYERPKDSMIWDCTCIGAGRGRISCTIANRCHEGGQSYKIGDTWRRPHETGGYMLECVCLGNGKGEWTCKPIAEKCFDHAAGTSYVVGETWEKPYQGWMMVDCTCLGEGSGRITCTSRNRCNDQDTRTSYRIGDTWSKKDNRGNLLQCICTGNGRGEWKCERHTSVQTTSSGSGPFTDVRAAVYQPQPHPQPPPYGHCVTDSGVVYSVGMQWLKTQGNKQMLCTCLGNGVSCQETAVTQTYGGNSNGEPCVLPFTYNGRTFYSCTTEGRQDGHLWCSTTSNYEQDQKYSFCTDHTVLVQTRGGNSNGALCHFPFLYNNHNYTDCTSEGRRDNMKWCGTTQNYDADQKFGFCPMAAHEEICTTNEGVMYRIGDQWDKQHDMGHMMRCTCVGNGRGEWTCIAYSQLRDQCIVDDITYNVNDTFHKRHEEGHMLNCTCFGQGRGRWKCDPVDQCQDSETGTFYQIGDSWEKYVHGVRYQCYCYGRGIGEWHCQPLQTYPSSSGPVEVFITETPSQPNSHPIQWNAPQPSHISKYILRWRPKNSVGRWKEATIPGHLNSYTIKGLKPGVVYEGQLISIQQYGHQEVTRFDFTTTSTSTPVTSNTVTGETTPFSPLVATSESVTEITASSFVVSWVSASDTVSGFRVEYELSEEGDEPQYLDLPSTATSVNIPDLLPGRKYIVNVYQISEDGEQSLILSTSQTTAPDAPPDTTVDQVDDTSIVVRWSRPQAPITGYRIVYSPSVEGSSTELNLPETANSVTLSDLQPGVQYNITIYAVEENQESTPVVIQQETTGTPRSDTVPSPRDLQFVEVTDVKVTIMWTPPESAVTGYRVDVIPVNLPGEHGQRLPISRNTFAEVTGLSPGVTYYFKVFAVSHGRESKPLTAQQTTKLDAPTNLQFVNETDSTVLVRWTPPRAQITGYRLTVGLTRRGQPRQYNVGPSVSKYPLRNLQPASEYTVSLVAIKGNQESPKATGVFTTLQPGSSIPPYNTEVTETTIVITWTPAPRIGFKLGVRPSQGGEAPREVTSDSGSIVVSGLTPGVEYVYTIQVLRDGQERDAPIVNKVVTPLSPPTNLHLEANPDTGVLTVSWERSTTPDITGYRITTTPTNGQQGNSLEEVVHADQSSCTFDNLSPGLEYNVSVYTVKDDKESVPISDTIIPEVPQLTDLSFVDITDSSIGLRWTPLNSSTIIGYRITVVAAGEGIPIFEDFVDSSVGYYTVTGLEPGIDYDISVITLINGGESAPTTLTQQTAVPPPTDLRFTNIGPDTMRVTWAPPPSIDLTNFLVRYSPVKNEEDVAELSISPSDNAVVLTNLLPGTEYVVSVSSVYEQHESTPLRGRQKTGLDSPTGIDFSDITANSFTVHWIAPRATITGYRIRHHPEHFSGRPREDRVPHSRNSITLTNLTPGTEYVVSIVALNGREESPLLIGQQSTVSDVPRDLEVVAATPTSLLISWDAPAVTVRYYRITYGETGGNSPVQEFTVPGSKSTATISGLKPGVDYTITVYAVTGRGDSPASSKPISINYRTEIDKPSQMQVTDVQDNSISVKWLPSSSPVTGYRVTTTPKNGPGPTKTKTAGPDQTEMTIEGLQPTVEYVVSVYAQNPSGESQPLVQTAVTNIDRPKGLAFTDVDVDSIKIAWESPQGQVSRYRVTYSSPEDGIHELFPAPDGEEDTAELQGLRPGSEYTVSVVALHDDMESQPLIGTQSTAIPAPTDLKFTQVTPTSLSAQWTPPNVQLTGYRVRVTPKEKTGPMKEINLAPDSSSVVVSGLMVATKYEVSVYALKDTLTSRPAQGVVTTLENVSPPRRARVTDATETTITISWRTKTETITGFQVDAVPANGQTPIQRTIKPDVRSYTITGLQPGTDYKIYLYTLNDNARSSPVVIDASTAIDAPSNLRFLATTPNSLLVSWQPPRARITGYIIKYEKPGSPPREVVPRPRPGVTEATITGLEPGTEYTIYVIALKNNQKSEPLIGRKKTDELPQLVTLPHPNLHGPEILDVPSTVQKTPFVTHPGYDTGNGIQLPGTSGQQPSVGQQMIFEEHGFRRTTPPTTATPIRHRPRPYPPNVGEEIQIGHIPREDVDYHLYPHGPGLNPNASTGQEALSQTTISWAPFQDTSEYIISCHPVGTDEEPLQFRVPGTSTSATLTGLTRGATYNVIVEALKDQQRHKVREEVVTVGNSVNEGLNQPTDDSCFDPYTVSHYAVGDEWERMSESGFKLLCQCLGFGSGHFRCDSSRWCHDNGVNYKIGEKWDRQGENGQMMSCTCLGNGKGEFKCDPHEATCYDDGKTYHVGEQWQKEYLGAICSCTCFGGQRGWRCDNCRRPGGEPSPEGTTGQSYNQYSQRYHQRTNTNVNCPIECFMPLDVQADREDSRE

B1: recombinant fructose-1,6-bisphosphate aldolase (rFBA) of Mycoplasma hyopneumoniae strain 168 (enzyme)
chain: MKTIISIAIDFLKNRESAHFSDIFLEVQTSLMSKWENQLPNLSTDKILTLKRGELYKLLSIDGNFVPLGDNYWTLRSDLNALVFFFFFFLKVFDCKKKKKKYRKGKMQLVNTKEMLEKALKNNYAIPHININNLEWTKAALLAAQAKKSPLIIGTSERVLTYMGGLKTIYNLVTNLIDYFKITVPVALHLDHGTYLTCKEALKNGYTSVMYDGSKEKFELNLERTEEIVRLANKVNATVEAEVGQIGGEEDGVIGNGEIANPENAKKITETGITCLAAGIGNIHGIYPPDWKSLNFEILEKISKVTKIPLVLHGGSGIPKDQIQKAIKLGIAKINVNTELQQANAAAISEFVLSGKVKQGKNFDPRKLLAPGTDAIQLLIEEKITEFGSANQA
notes: Fructose-1,6-bisphosphate aldolase (FBA) of Mycoplasma hyopneumoniae strain 168, full-length fba gene, locus MHP168_014, GenBank ADQ90241.1; The gene was cloned by site-directed mutation and overlap extension PCR 'due to the existence of rare codons'; also called fructose-bisphosphate aldolase; source: Escherichia coli BL21 (DE3), purified by Ni-chelating chromatography
Kd: 468 ± 23 nM | kon: 3470 ± 580 M⁻¹ s⁻¹
